{"source": "paper PMC10872586", "about": "(Cell reports, 2023)", "binders": {"B1": {"name": "CR9114 with germline heavy chain, Fab (Fab, V domains shown)", "VH": "QVQLVQSGAEVKKPGSSVKVSCKASGGTFSSYAISWVRQAPGQGLEWMGGIIPIFGTANYAQKFQGRVTITADKSTSTAYMELSSLRSEDTAVYYCARHGNYYYYYGMDVWGQGTTVTVSS", "VL": "SYVLTQPPAVSGTPGQRVTISCSGSDSNIGRRSVNWYQQFPGTAPKLLIYSNDQRPSVVPDRFSGSKSGTSASLAISGLQSEDEAEYYCAAWDDSLKGAVFGGGTQLTVL", "notes": "also called CR9114 gHC; WT; source: Expi293F, co-transfected, purified (CaptureSelect CH1-XL)"}, "B2": {"name": "CR9114 gHC Fab VL W91F (Fab, V domains shown)", "VH": "B1 VH", "VL": "B1 VL with W92F", "notes": "Kabat numbering; source: Expi293F, co-transfected, purified (CaptureSelect CH1-XL)"}, "B3": {"name": "CR9114 gHC Fab VL A96S (Fab, V domains shown)", "VH": "B1 VH", "VL": "B1 VL with A99S", "notes": "as for B2"}, "B4": {"name": "CR9114 gHC Fab VL A96R (Fab, V domains shown)", "VH": "B1 VH", "VL": "B1 VL with A99R", "notes": "as for B2"}, "B5": {"name": "CR9114 gHC Fab VL A96V (Fab, V domains shown)", "VH": "B1 VH", "VL": "B1 VL with A99V", "notes": "as for B2"}, "B6": {"name": "CR9114 gHC Fab VL W91Y (Fab, V domains shown)", "VH": "B1 VH", "VL": "B1 VL with W92Y", "notes": "as for B2"}}, "note": "Numbering of substitutions follows the chain as printed."}
{"biological_target": "mini-HA #4900 (Designed influenza HA stem #4900, …, stabilised)", "assay": "BLI", "details": "both partners purified", "units": {"Kd": "µM"}}
{"binder": "B1", "Kd": 6.2}
{"binder": "B2", "Kd": 9.7}
{"binder": "B3", "Kd": 1.9}
{"binder": "B4", "Kd": 13}
{"binder": "B5", "Kd": 3.8}
{"binder": "B6", "Kd": 45.7}
{"biological_target": "HA protein from H1N1 A/Solomon Islands/3/2006 (Influenza A virus (A/Solomon …, UniProt A7Y8I1, strain))", "assay": "BLI", "details": "both partners purified", "units": {"Kd": "µM"}}
{"binder": "B2", "Kd": 9.6}
{"binder": "B3", "Kd": 1.6}
{"binder": "B4", "Kd": 21.5}
{"binder": "B5", "Kd": 15.8}
{"binder": "B6", "Kd": 27.2}
